In US8765433B2, “Alcohol dehydrogenases (ADH) useful for fermentive production of lower alkyl alcohols” (Butamax Advanced Biofuels LLC, priority 2009, dated 2014):

B1: PzADH: Phenylobacterium zucineum HLK1 ADH, SEQ ID NO: 34 (protein)
chain: MKALVYGGPGQKSLEDRPKPELQAPGDAIVRIVKTTICGTDLHILKGDVATCAPGRILGHEGVGIVDSVGAAVTAFRPGDHVLISCISACGKCDYCRRGMYSHCTTGGWILGNEIDGTQAEYVRTPHADTSLYPVPAGADEEALVMLSDILPTGFECGVLNGKVAPGGTVAIVGAGPIGLAALLTAQFYSPAEIIMIDLDDNRLGIARQFGATQTINSGDGRAAETVKALTGGRGVDTAIEAVGVPATFELCQDLVGPGGVIANIGVHGRKVDLHLDRLWSQNIAITTRLVDTVSTPMLLKTVQSRKLDPSQLITHRFRLDEILAAYDTFARAADTQALKVIIAA
modifications: Phenylobacterium zucineum HLK1
B2: GbADH: Geobacillus sp. WCH70 ADH, SEQ ID NO: 37 (protein)
chain: MKALTYLGPGKKEVMEKPKPKIEKETDAIVKITKTTICGTDLHILSGDVPTVEEGRILGHEGVGIIEEVGSGVKNFKKGDRVLISCITSCGKCENCKKGLYAHCEDGGWILGHLIDGTQAEYVRIPHADNSLYPIPEGVDEEALVMLSDILPTGFEIGVLNGKVQPGQTVAIIGAGPVGMAALLTAQFYSPAEIIMVDLDDNRLEVAKKFGATQVVNSADGKAVEKIMELTGGKGVDVAMEAVGIPVTFDICQEIVKPGGYIANIGVHGKSVEFHIEKLWIRNITLTTGLVNTTSTPMLLKTVQSKKLKPEQLITHRFAFADIMKAYEVFGNAAKEKALKVIISND
modifications: Geobacillus sp. WCH70
B3: AbADH: Acinetobacter baumannii AYE ADH, SEQ ID NO: 36 (protein)
chain: MENIMKAMVYYGDHDIRFEERKKPELIDPTDAIIKMTKTTICGTDLGIYKGKNPEIEQKEQEKNGSFNGRILGHEGIGIVEQIGSSVKNIKVGDKVIVSCVSRCGTCENCAKQLYSHCRNDGGWIMGYMIDGTQAEYVRTPFADTSLYVLPEGLNEDVAVLLSDALPTAHEIGVQNGDIKPGDTVAIVGAGPVGMSALLTAQFYSPSQIIMIDMDENRLAMAKELGATDTINSGTEDAIARVMELTNQRGVDCAIEAVGIEPTWDICQNIVKEGGHLANVGVHGKSVNFSLEKLWIKNLTITTGLVNANTTGMLLKSCCSGKLPMEKLATHHFKFNEIEKAYDVFINAAKEKAMKVIIDF
modifications: Acinetobacter baumannii AYE
B4: MsADH: Methylocella silvestris BL2 ADH, SEQ ID NO: 35 (protein)
chain: MKALVYHGPGQKALEERPKPQIEASGDAIVKIVKTTICGTDLHILKGDVATCAPGRILGHEGVGIIDSVGAGVTAFQPGDRVLISCISSCGKCDYCRRGLYSHCTTGGWILGNEIDGTQAEYVRTPHADTSLYRIPAGADEEALVMLSDILPTGFECGVLNGKVEPGSTVAIVGAGPIGLAALLTAQFYAPGDIIMIDLDDNRLDVARRFGATHTINSGDGKAAEAVKALTGGIGVDTAIEAVGIPATFLLCEDIVAPGGVIANVGVHGVKVDLHLERLWAHNITITTRLVDTVTTPMLLKTVQSKKLDPLQLITHRFTLDHILDAYDTFSRAADTKALKVIVSA
modifications: Methyloceclla silvestris BL2
B5: ScADH7: Saccharomyces cerevisiae ADH7 alcohol dehydrogenase, SEQ ID NO: 23 (protein, listed as Saccharomyces cerevisiae)
chain: MLYPEKFQGIGISNAKDWKHPKLVSFDPKPFGDHDVDVEIEACGICGSDFHIAVGNWGPVPENQILGHEIIGRVVKVGSKCHTGVKIGDRVGVGAQALACFECERCKSDNEQYCTNDHVLTMWTPYKDGYISQGGFASHVRLHEHFAIQIPENIPSPLAAPLLCGGITVFSPLLRNGCGPGKRVGIVGIGGIGHMGILLAKAMGAEVYAFSRGHSKREDSMKLGADHYIAMLEDKGWTEQYSNALDLLVVCSSSLSKVNFDSIVKIMKIGGSIVSIAAPEVNEKLVLKPLGLMGVSISSSAIGSRKEIEQLLKLVSEKNVKIWVEKLPISEEGVSHAFTRMESGDVKYRFTLVDYDKKFHK
B6: CbADH: Clostridium beijerinckii ADH, SEQ ID NO: 29 (protein, listed as Clostridium beijerinckii)
chain: MKGFAMLGINKLGWIEKERPVAGSYDAIVRPLAVSPCTSDIHTVFEGALGDRKNMILGHEAVGEVVEVGSEVKDFKPGDRVIVPCTTPDWRSLEVQAGFQQHSNGMLAGWKFSNFKDGVFGEYFHVNDADMNLAILPKDMPLENAVMITDMMTTGFHGAELADIQMGSSVVVIGIGAVGLMGIAGAKLRGAGRIIGVGSRPICVEAAKFYGATDILNYKNGHIVDQVMKLTNGKGVDRVIMAGGGSETLSQAVSMVKPGGIISNINYHGSGDALLIPRVEWGCGMAHKTIKGGLCPGGRLRAEMLRDMVVYNRVDLSKLVTHVYHGFDHIEEALLLMKDKPKDLIKAVVIL
B7: RnADH1: Rattus norvegicus ADH1, SEQ ID NO: 32 (protein, listed as Rattus norvegicus)
chain: MSTAGKVIKCKAAVLWEPHKPFTIEDIEVAPPKAHEVRIKMVATGVCRSDDHAVSGSLFTPLPAVLGHEGAGIVESIGEGVTCVKPGDKVIPLFSPQCGKCRICKHPESNLCCQTKNLTQPKGALLDGTSRFSCRGKPIHHFISTSTFSQYTVVDDIAVAKIDAAAPLDKVCLIGCGFSTGYGSAVQVAKVTPGSTCAVFGLGGVGLSVVIGCKTAGAAKIIAVDINKDKFAKAKELGATDCINPQDYTKPIQEVLQEMTDGGVDFSFEVIGRLDTMTSALLSCHSACGVSVIVGVPPSAQSLSVNPMSLLLGRTWKGAIFGGFKSKDAVPKLVADFMAKKFPLEPLITHVLPFEKINEAFDLLRAGKSIRTVLTF
B8: TADH: Thermus sp. ATN1 ADH, SEQ ID NO: 33 (protein)
chain: MRAVVFENKERVAVKEVNAPRLQHPLDALVRVHLAGICGSDLHLYHGKIPVLPGSVLGHEFVGQVEAVGEGIQDLQPGDWVVGPFHIACGTCPYCRRHQYNLCERGGVYGYGPMFGNLQGAQAEILRVPFSNVNLRKLPPNLSPERAIFAGDILSTAYGGLIQGQLRPGDSVAVIGAGPVGLMAIEVAQVLGASKILAIDRIPERLERAASLGAIPINAEQENPVRRVRSETNDEGPDLVLEAVGGAATLSLALEMVRPGGRVSAVGVDNAPSFPFPLASGLVKDLTFRIGLANVHLYIDAVLALLASGRLQPERIVSHYLPLEEAPRGYELFDRKEALKVLLVVRG
modifications: Thermus sp. ATN1
B9: SadB: Achromobacter xylosoxidans Secondary Alcohol Dehydrogenase B; control polypeptide, SEQ ID NO: 26 (protein)
chain: MKALVYHGDHKISLEDKPKPTLQKPTDVVVRVLKTTICGTDLGIYKGKNPEVADGRILGHEGVGVIEEVGESVTQFKKGDKVLISCVTSCGSCDYCKKQLYSHCRDGGWILGYMIDGVQAEYVRIPHADNSLYKIPQTIDDEIAVLLSDILPTGHEIGVQYGNVQPGDAVAIVGAGPVGMSVLLTAQFYSPSTIIVIDMDENRLQLAKELGATHTINSGTENVVEAVHRIAAEGVDVAIEAVGIPATWDICQEIVKPGAHIANVGVHGVKVDFEIQKLWIKNLTITTGLVNTNTTPMLMKVASTDKLPLKKMITHRFELAEIEHAYQVFLNGAKEKAMKIILSNAGAA
modifications: Achromobacter xylosoxidans
B10: HLADH: Horse-liver ADH (A-6128) purchased from Sigma; control polypeptide, SEQ ID NO: 21 (protein, listed as Equus caballus)
chain: MSTAGKVIKCKAAVLWEEKKPFSIEEVEVAPPKAHEVRIKMVATGICRSDDHVVSGTLVTPLPVIAGHEAAGIVESIGEGVTTVRPGDKVIPLFTPQCGKCRVCKHPEGNFCLKNDLSMPRGTMQDGTSRFTCRGKPIHHFLGTSTFSQYTVVDEISVAKIDAASPLEKVCLIGCGFSTGYGSAVKVAKVTQGSTCAVFGLGGVGLSVIMGCKAAGAARIIGVDINKDKFAKAKEVGATECVNPQDYKKPIQEVLTEMSNGGVDFSFEVIGRLDTMVTALSCCQEAYGVSVIVGVPPDSQNLSMNPMLLLSGRTWKGAIFGGFKSKDSVPKLVADFMAKKFALDPLITHVLPFEKINEGFDLLRSGESIRTILTF

Experiment: Isobutanol oxidation assay
Format: biochemical
Details: Table 8
Description: (§1) As a routine practice, the crude extracts and purified proteins were assayed for butanol oxidation activity, in order to ensure that the recombinant proteins were active throughout the purification process. […] Alcohol oxidation activities were carried out in 50 mM sodium phosphate buffer at pH 8.8 and aldehyde reduction reactions were assayed in 190 mM potassium phosphate buffer at pH 7.0. Depending on the nature of reaction being carried out, the enzyme and cofactor stocks were diluted in the reaction buffers at the respective pHs. Either buffer or cell extract prepared from the proprietary E. coli strain (with no ADH plasmid) was used as the negative control for assays with purified protein and cell-free extracts, respectively.
Kinetic constants of the ADH enzymes were calculated and compared to identify those candidate ADH enzymes with the most desirable properties for the conversion of isobutyraldehyde to isobutanol in the last step of the engineered pathway for isobutanol production. The assays for determining the kinetic constants were carried out using initial rates from the assays described above. […] The concentration of a given enzyme was such that it was conducive for the measurement of initial velocities over a 1-min time course. For each enzyme, Michaelis-Menten plots were generated with a broad range of substrate concentrations. Rough estimates of KM were obtained, based on which the assays were redesigned so as to use substrate concentrations in the range 0.5 to 10 times the KM value, to be able to obtain the appropriate kinetic constants. […] When calculating the KI for isobutanol, the same reactions were carried out in the presence of varying concentrations of isobutanol (generally 0-535 mM) in the reaction (see FIG. 7, for example). Reactions with isobutanol substrate were performed at 30° C. in 50 mM Sodium phosphate buffer, pH 8.8, containing 7.5 mM NAD. The Enzyme kinetics module (Version 1.3) of SigmaPlot 11 (Systat Software, Inc.) was used to fit data to Michaelis-Menten equations and calculate the kinetic constants. The kcat/KM is derived from the individual numbers of kcat and KM and not an experimentally determined value. The ratios of the KM, KI, and kcat/KM for each candidate enzyme as compared to the same parameter for SadB are given in Table 9.
With B1 the “conversion of isobutanol to isobutyraldehyde” value (“conversion of isobutanol” for short) was “No measureable”. With B2 the “conversion of isobutanol” value was “No measureable”. For B3, the “conversion of isobutanol” value was “No measureable”. With B4 the “conversion of isobutanol” value was “No measureable”.

Experiment: Cofactor specificity in isobutyraldehyde reduction reactions
Format: biochemical
Details: Table 7
Description: as §1
In initial experiments, there were insufficient levels of protein expression with EhADH1 and RpADH8. […] It is believed that one of skill in the art could further optimize expression and assay conditions for these candidates. Sufficient amounts of active protein could be purified with all other enzymes for which data are presented. […]
With B5 the “Other enzymatic properties and cofactor preference” value was “NADPH specific”. With B6 the “Other enzymatic properties and cofactor preference” value was “NADPH specific”. With B7 the “Other enzymatic properties and cofactor preference” value was “NADH specific”. With B8 the “Other enzymatic properties and cofactor preference” value was “NADH specific”.

Same assay, conditions: Table 8
In the case of B1, the “Other enzymatic properties and cofactor preference” value is reported as “NADH specific”. For B2, the “Other enzymatic properties and cofactor preference” value was “NADPH specific”. With B3 the “Other enzymatic properties and cofactor preference” value was “NADH specific”. With B4 the “Other enzymatic properties and cofactor preference” value was “NADH specific”.

Same assay, conditions: isobutyraldehyde reduction, NADH or NADPH as cofactor
For B9, the “COFACTOR PREFERENCE” value was “NADH”. In the case of B1, the “COFACTOR PREFERENCE” value is reported as “NADH”. For B5, the “COFACTOR PREFERENCE” value was “NADPH”. In the case of B6, the “COFACTOR PREFERENCE” value is reported as “NADPH”. In the case of B7, the “COFACTOR PREFERENCE” value is reported as “NADH”. For B2, the “COFACTOR PREFERENCE” value was “NADPH”. For B3, the “COFACTOR PREFERENCE” value was “NADH”. For B4, the “COFACTOR PREFERENCE” value was “NADH”. In the case of B8, the “COFACTOR PREFERENCE” value is reported as “NADH”. For B10, the “COFACTOR PREFERENCE” value was “NADH”.
